# According to US20250320281A1:
# Key:
# [1] = molecular target: HIV-1 92RW020 Env (pseudovirus) (HIV-1); assay: cell-based or functional assay
# [2] = molecular target: HIV-1 92TH021 Env (pseudovirus) (HIV-1); assay: cell-based or functional assay
# [3] = molecular target: HIV-1 92UG005 Env (pseudovirus) (HIV-1); assay: cell-based or functional assay
# [4] = molecular target: HIV-1 92UG024 Env (pseudovirus) (HIV-1); assay: cell-based or functional assay
# [5] = molecular target: HIV-1 93IN905 Env (pseudovirus) (HIV-1); assay: cell-based or functional assay
# [6] = molecular target: HIV-1 94UG103 Env (pseudovirus) (HIV-1); assay: cell-based or functional assay
# [7] = molecular target: HIV-1 APV6 Env (pseudovirus) (HIV-1); assay: cell-based or functional assay
# [8] = molecular target: HIV-1 CMU02 Env (pseudovirus) (HIV-1); assay: cell-based or functional assay
# [9] = molecular target: HIV-1 Env of pseudovirus isolate MGRM-G-001 (HIV-1); assay: cell-based or functional assay
# [10] = molecular target: HIV-1 Env of pseudovirus isolate MGRM-G-004 (HIV-1); assay: cell-based or functional assay
# [11] = molecular target: HIV-1 Env of pseudovirus isolate MGRM-G-006 (HIV-1); assay: cell-based or functional assay
# [12] = molecular target: HIV-1 Env of pseudovirus isolate MGRM-G-009 (HIV-1); assay: cell-based or functional assay
# [13] = molecular target: HIV-1 Env of pseudovirus isolate MGRM-G-011 (HIV-1); assay: cell-based or functional assay
# [14] = molecular target: HIV-1 Env of pseudovirus isolate MGRM-G-013 (HIV-1); assay: cell-based or functional assay
# [15] = molecular target: HIV-1 Env of pseudovirus isolate MGRM-G-014 (HIV-1); assay: cell-based or functional assay
# [16] = molecular target: HIV-1 Env of pseudovirus isolate MGRM-G-015 (HIV-1); assay: cell-based or functional assay
# [17] = molecular target: HIV-1 Env of pseudovirus isolate MGRM-G-016 (HIV-1); assay: cell-based or functional assay
# [18] = molecular target: HIV-1 Env of pseudovirus isolate MGRM-G-017 (HIV-1); assay: cell-based or functional assay
# [19] = molecular target: HIV-1 Env of pseudovirus isolate MGRM-G-019 (HIV-1); assay: cell-based or functional assay
# [20] = molecular target: HIV-1 Env of pseudovirus isolate MGRM-G-027 (HIV-1); assay: cell-based or functional assay
# [21] = molecular target: HIV-1 JRCSF Env (pseudovirus) (HIV-1) (UniProt P20871); assay: cell-based or functional assay
# [22] = molecular target: HIV-1 MGRM-A-010 Env (pseudovirus) (HIV-1); assay: cell-based or functional assay
# [23] = molecular target: HIV-1 MGRM-C-026 Env (pseudovirus) (HIV-1); assay: cell-based or functional assay
# [24] = molecular target: HIV-1 MGRM-C-027 Env (pseudovirus) (HIV-1); assay: cell-based or functional assay
# [25] = molecular target: HIV-1 MGRM-C-028 Env (pseudovirus) (HIV-1); assay: cell-based or functional assay
# [26] = molecular target: HIV-1 MGRM-D-018 Env (pseudovirus) (HIV-1); assay: cell-based or functional assay
# [27] = molecular target: HIV-1 NL43 Env (pseudovirus) (HIV-1); assay: cell-based or functional assay
# [28] = molecular target: envelope of aMLV pseudovirus (negative control); assay: cell-based or functional assay
# [29] = molecular target: WT JR-FL gp120 (HIV-1); assay: ELISA, antigen-coated wells
substance,measurement,setting,value
5147_N06 (PGT-130) (antibody),"Neutralization by PGT-130, IC50",[1],0.014 µg/mL
same,"Neutralization by PGT-130, IC80",[1],0.508 µg/mL
same,"Neutralization by PGT-130, IC90",[1],3.68 µg/mL
same,"Neutralization by PGT-130, IC95",[1],> 10 µg/mL
same,neutralization IC50 (pseudovirus),[1],0.014 µg/mL
same,"Neutralization by PGT-130, IC50",[2],0.0082 µg/mL
same,"Neutralization by PGT-130, IC80",[2],0.0261 µg/mL
same,"Neutralization by PGT-130, IC90",[2],0.0513 µg/mL
same,"Neutralization by PGT-130, IC95",[2],0.0963 µg/mL
same,neutralization IC50 (pseudovirus),[2],0.0082 µg/mL
same,"Neutralization by PGT-130, IC50",[3],0.474 µg/mL
same,"Neutralization by PGT-130, IC80",[3],> 10 µg/mL
same,"Neutralization by PGT-130, IC90",[3],> 10 µg/mL
same,"Neutralization by PGT-130, IC95",[3],> 10 µg/mL
same,neutralization IC50 (pseudovirus),[3],0.474 µg/mL
same,"Neutralization by PGT-130, IC50",[4],> 10 µg/mL
same,"Neutralization by PGT-130, IC80",[4],> 10 µg/mL
same,"Neutralization by PGT-130, IC90",[4],> 10 µg/mL
same,"Neutralization by PGT-130, IC95",[4],> 10 µg/mL
same,neutralization IC50 (pseudovirus),[4],> 10 µg/mL
same,"Neutralization by PGT-130, IC50",[5],0.0182 µg/mL
same,"Neutralization by PGT-130, IC80",[5],0.272 µg/mL
same,"Neutralization by PGT-130, IC90",[5],1.31 µg/mL
same,"Neutralization by PGT-130, IC95",[5],5.48 µg/mL
same,neutralization IC50 (pseudovirus),[5],0.0182 µg/mL
same,"Neutralization by PGT-130, IC50",[6],0.635 µg/mL
same,"Neutralization by PGT-130, IC80",[6],> 10 µg/mL
same,"Neutralization by PGT-130, IC90",[6],> 10 µg/mL
same,"Neutralization by PGT-130, IC95",[6],> 10 µg/mL
same,neutralization IC50 (pseudovirus),[6],0.635 µg/mL
same,"Neutralization by PGT-130, IC50",[7],> 10 µg/mL
same,"Neutralization by PGT-130, IC80",[7],> 10 µg/mL
same,"Neutralization by PGT-130, IC90",[7],> 10 µg/mL
same,"Neutralization by PGT-130, IC95",[7],> 10 µg/mL
same,neutralization IC50 (pseudovirus),[7],> 10 µg/mL
same,"Neutralization by PGT-130, IC50",[8],> 10 µg/mL
same,"Neutralization by PGT-130, IC80",[8],> 10 µg/mL
same,"Neutralization by PGT-130, IC90",[8],> 10 µg/mL
same,"Neutralization by PGT-130, IC95",[8],> 10 µg/mL
same,neutralization IC50 (pseudovirus),[8],> 10 µg/mL
same,"IC50 (µg/mL), pseudovirus neutralization",[9],0.0198 µg/mL
same,"IC50 (µg/mL), pseudovirus neutralization",[10],> 50 µg/mL
same,"IC50 (µg/mL), pseudovirus neutralization",[11],> 50 µg/mL
same,"IC50 (µg/mL), pseudovirus neutralization",[12],> 50 µg/mL
same,"IC50 (µg/mL), pseudovirus neutralization",[13],> 50 µg/mL
same,"IC50 (µg/mL), pseudovirus neutralization",[14],> 50 µg/mL
same,"IC50 (µg/mL), pseudovirus neutralization",[15],2.23 µg/mL
same,"IC50 (µg/mL), pseudovirus neutralization",[16],> 50 µg/mL
same,"IC50 (µg/mL), pseudovirus neutralization",[17],> 50 µg/mL
same,"IC50 (µg/mL), pseudovirus neutralization",[18],> 50 µg/mL
same,"IC50 (µg/mL), pseudovirus neutralization",[19],27.9 µg/mL
same,"IC50 (µg/mL), pseudovirus neutralization",[20],4.14 µg/mL
same,"Neutralization by PGT-130, IC50",[21],0.0089 µg/mL
same,"Neutralization by PGT-130, IC80",[21],0.0317 µg/mL
same,"Neutralization by PGT-130, IC90",[21],0.0669 µg/mL
same,"Neutralization by PGT-130, IC95",[21],0.134 µg/mL
same,neutralization IC50 (pseudovirus),[21],0.0089 µg/mL
same,"Neutralization by PGT-130, IC50",[22],0.0054 µg/mL
same,"Neutralization by PGT-130, IC80",[22],0.0251 µg/mL
same,"Neutralization by PGT-130, IC90",[22],0.0643 µg/mL
same,"Neutralization by PGT-130, IC95",[22],0.164 µg/mL
same,neutralization IC50 (pseudovirus),[22],0.0054 µg/mL
same,"Neutralization by PGT-130, IC50",[23],0.0173 µg/mL
same,"Neutralization by PGT-130, IC80",[23],0.263 µg/mL
same,"Neutralization by PGT-130, IC90",[23],1.32 µg/mL
same,"Neutralization by PGT-130, IC95",[23],6.13 µg/mL
same,neutralization IC50 (pseudovirus),[23],0.0173 µg/mL
same,"Neutralization by PGT-130, IC50",[24],0.0052 µg/mL
same,"Neutralization by PGT-130, IC80",[24],0.0318 µg/mL
same,"Neutralization by PGT-130, IC90",[24],0.106 µg/mL
same,"Neutralization by PGT-130, IC95",[24],0.464 µg/mL
same,neutralization IC50 (pseudovirus),[24],0.0052 µg/mL
same,"Neutralization by PGT-130, IC50",[25],> 10 µg/mL
same,"Neutralization by PGT-130, IC80",[25],> 10 µg/mL
same,"Neutralization by PGT-130, IC90",[25],> 10 µg/mL
same,"Neutralization by PGT-130, IC95",[25],> 10 µg/mL
same,neutralization IC50 (pseudovirus),[25],> 10 µg/mL
same,"Neutralization by PGT-130, IC50",[26],0.0378 µg/mL
same,"Neutralization by PGT-130, IC80",[26],0.289 µg/mL
same,"Neutralization by PGT-130, IC90",[26],2.31 µg/mL
same,"Neutralization by PGT-130, IC95",[26],> 10 µg/mL
same,neutralization IC50 (pseudovirus),[26],0.0378 µg/mL
same,"Neutralization by PGT-130, IC50",[27],> 10 µg/mL
same,"Neutralization by PGT-130, IC80",[27],> 10 µg/mL
same,"Neutralization by PGT-130, IC90",[27],> 10 µg/mL
same,"Neutralization by PGT-130, IC95",[27],> 10 µg/mL
same,neutralization IC50 (pseudovirus),[27],> 10 µg/mL
same,"IC50 (µg/mL), pseudovirus neutralization",[28],> 50 µg/mL
same,EC50,[29],0.2 µg/mL
